Patent US6617117

Columns and labels:
[1] = target: c-myc epitope-tagged SAPK4 (human) (UniProt O15264); assay: cell-based or functional assay
[2] = target: SAPK3 (untagged, transfected) (rat) (UniProt Q63538); assay: cell-based or functional assay
[3] = tested on: T1, human GST-SAPK4
T1 sequence: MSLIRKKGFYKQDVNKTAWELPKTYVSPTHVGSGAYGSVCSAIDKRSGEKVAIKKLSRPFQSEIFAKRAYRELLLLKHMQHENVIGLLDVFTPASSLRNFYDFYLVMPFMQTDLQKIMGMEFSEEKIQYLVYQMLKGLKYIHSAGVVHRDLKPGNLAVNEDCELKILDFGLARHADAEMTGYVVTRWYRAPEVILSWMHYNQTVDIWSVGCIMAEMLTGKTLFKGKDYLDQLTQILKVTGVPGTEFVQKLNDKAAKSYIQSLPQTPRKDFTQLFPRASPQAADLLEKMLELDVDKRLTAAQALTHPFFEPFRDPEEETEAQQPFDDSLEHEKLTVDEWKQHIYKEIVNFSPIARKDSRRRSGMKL

Sequence of SAPK3 (untagged, transfected) (rat) (Q63538 whole entry): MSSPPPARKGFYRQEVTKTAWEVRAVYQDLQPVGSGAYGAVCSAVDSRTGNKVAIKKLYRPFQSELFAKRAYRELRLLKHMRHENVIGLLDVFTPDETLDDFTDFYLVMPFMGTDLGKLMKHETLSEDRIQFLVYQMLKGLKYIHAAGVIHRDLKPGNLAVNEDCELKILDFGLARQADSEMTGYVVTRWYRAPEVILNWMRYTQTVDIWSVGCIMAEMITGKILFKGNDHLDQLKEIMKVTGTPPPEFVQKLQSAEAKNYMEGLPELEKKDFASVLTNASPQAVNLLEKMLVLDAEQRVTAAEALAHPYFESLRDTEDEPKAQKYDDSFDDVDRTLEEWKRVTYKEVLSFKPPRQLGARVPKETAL

Row | SAPK4 activity (MBP phosphorylation) after co-transfection into COS cells [1] [fold] | SAPK3 activity (MBP phosphorylation) after cotransfection into COS cells [2] [fold] | activation of transfected SAPK3 by osmotic shock in cells cotransfected with SKK3 [2] [fold] | Substance | phosphorylation and activation of SAPK4 in vitro [3]
1 | 12.5 | 10 | 30 | human SKK3 (transfected, pcDNA3.1) (from UniProt P52564 1-334) (enzyme) | 
2 |  |  |  | SKK1 (MKK4) | SAPK4 is phosphorylated and activated by SKK1 in vitro, but at a much slower rate than SAPK2a under identical conditions
